Assay results published in article PMC5714209.

Target: A3B 193 CTD (human) (UniProt Q9UH17)
Assay: SEC

A3B 193 CTD (from UniProt Q9UH17 193-382) (domain or fragment)
stoichiometry N: 2
